Patent publication US4532212A, “Process for the dissolution of peptides in non-aqueous and mixed non-aqueous/aqueous systems” (Shell Oil Company, priority 1983, dated 1985)
Entries after “also recorded” stand apart in the source; their conditions may differ.

Columns and labels:
Assay type in all cases: physicochemical
[1] = Protein crystallisation from methanol/18-crown-6/(NH4)2SO4; conditions: crystalline composite from methanol/18-crown-6/(NH4)2SO4
Method: The solubilised protein solutions were stored at 4° C. within an outer tube containing ethyl acetate as precipitating co-solvent.

[2] = Dissolution of peptides/proteins in organic solvents using crown ethers and cryptands; conditions: in words
Method: ^(a) Protein concentration was in the range 0.05-0.8 mM depending on
protein (i.e. cytochrome c, concentration was 0.8 mM, whereas, myoglobin
concentrtion was 0.1 mM). In a typical experiment, small portions of CE
(ca 2.0 mg, 7.6 × 10^-3 mmoles) were added to a suspension of
protein/peptide (5 mg) in methanol (2 ml) at 4-25° C. with stirrin
until the suspension dissolved.

[3] = Protein separation with crown ether/methanol: iso-electric focusing of fractions; conditions: 18-crown-6 in methanol
Method: Thus mixtures of cytochrome c and α-chymotrypsin (10 mg each, 8.1×10^-4 and 4×10^-4 m.mole, respectively) were treated with 18-crown-6 (28 mg, 0.11 m.mole) in methanol (2 ml). The red solution was filtered from undissolved protein (α-chymotrypsin) and dialysed against water, then buffer (Tris, pH 7.5, 0.10 M). Both filtrate and filtered protein fractions were examined using isoelectric focusing in order to establish the purity of the separations (results shown in Table 2).
Mixtures of cytochrome c, BSA and α-chymotrypsin (10 mg each, 8,1×10^-4, 1.4×10^-4 and 4×10^-4 m.mole respectively) were treated with 18-crown-6 (50 mg, 0.19 m.mole) in methanol (2 ml) and the resulting red solution was filtered and then dialysed against water then buffer (Tris, pH 7.5, 0.01 M) to remove crown ether and methanol.

[4] = mixture cytochrome c + BSA + α-chymotrypsin

| Substance | Circular dichroism / UV/visible spectroscopy of crystalline material (protein integrity) [1] | Solubility in methanol with crown ether [2] | Iso-electric focusing results, pHI [3, 4] | Iso-electric focusing results, pHI ([3]; mixture cytochrome c + α-chymotrypsin) |
| --- | --- | --- | --- | --- |
| Cytochrome c: Cytochrome c from horse heart (Type III, from Sigma Chemical Co.), 104 residues | intact protein present | readily dissolves; also recorded: dissolves in methanol at a lower crown ether concentration than BSA | 9.35 | 9.35 |
| Bovine serum albumin (BSA): bovine serum albumin, 513 amino acid residues as printed | – | – | 5.5-6.0 | – |
